According to publication PMC5707411:

Columns and labels:
5C4 IgG [1] = experiment: flow cytometry on cells; details: full-length pre-F variants expressed in Expi293 cells, read off a plot
D25 IgG [2] = experiment: flow cytometry on cells; details: full-length pre-F variants expressed in Expi293 cells, read off a plot
5C4 IgG [3] = experiment: flow cytometry on cells; details: full-length pre-F variants expressed in Expi293 cells; parent: est. 0.04; read off a plot
D25 IgG [4] = experiment: flow cytometry on cells; details: full-length pre-F variants expressed in Expi293 cells; parent: est. 0.14; read off a plot
[5] = target: full-length RSV F (TM, residues 1–574) from strain 18537 with the DS-Cav1 prefusion-stabilizing mutations (respiratory syncytial virus subtype B, strain 18537) (UniProt P13843)
[6] = target: prefusion-stabilized RSV F strain A2 (DS-Cav1); experiment: SPR
[7] = target: RSV F (+) FdTHS based on strain A2 (wild-type A2 RSV F ectodomain fused to a C-terminal trimerization motif) (respiratory syncytial virus subtype A, strain A2) (UniProt Q4KRW9); experiment: crystal structure; 5C4 Fab co-expressed with RSV F (+) FdTHS in Expi293, complex purified (Ni-NTA, Strep-Tactin, thrombin, Superose 6); crystal from 0.2 M ammonium acetate, 0.1 M Bis-Tris pH 6.5, 25% PEG 3350; 3.4 Å

For “full-length RSV F (TM, residues 1–574) from strain A2 with the DS-Cav1 prefusion-stabilizing mutations Q202R”, the other: Relative binding (fractional binding relative to motavizumab) (5C4 IgG [1]; parent: est. 0.75) was 0.73 and the other: Relative binding (fractional binding relative to motavizumab) (D25 IgG [2]; parent: est. 0.69) was 0.63.

With “full-length RSV F (TM, residues 1–574) from strain A2 with the DS-Cav1 prefusion-stabilizing mutations K201A” the other: Relative binding (fractional binding relative to motavizumab) (5C4 IgG [1]; parent: est. 0.60) was 0.02 and the other: Relative binding (fractional binding relative to motavizumab) (D25 IgG [2]; parent: est. 0.63) was 0.64.

Work on “full-length RSV F (TM, residues 1–574) from strain 18537 with the DS-Cav1 prefusion-stabilizing mutations (from UniProt P13843) Q209K” yielded an other: Relative binding (fractional binding relative to motavizumab) (5C4 IgG [3]) of 0.19 and an other: Relative binding (fractional binding relative to motavizumab) (D25 IgG [4]) of 0.58.

Substance “full-length RSV F (TM, residues 1–574) from strain A2 with the DS-Cav1 prefusion-stabilizing mutations K209Q” has an other: Relative binding (fractional binding relative to motavizumab) (5C4 IgG [1]; parent: est. 0.75) of 0.61 and an other: Relative binding (fractional binding relative to motavizumab) (D25 IgG [2]; parent: est. 0.69) of 0.54.

With “full-length RSV F (TM, residues 1–574) from strain A2 with the DS-Cav1 prefusion-stabilizing mutations A74T” the other: Relative binding (fractional binding relative to motavizumab) (5C4 IgG [1]; parent: est. 0.75) was 0.7 and the other: Relative binding (fractional binding relative to motavizumab) (D25 IgG [2]; parent: est. 0.69) was 0.68.

For “full-length RSV F (TM, residues 1–574) from strain A2 with the DS-Cav1 prefusion-stabilizing mutations K201N”, the other: Relative binding (fractional binding relative to motavizumab) (5C4 IgG [1]; parent: est. 0.60) was 0.012, the other: Relative binding (fractional binding relative to motavizumab) (5C4 IgG [1]; parent: est. 0.75) was 0.01 and the other: Relative binding (fractional binding relative to motavizumab) (D25 IgG [2]; parent: est. 0.63) was 0.64. It also gave an other: Relative binding (fractional binding relative to motavizumab) (D25 IgG [2]; parent: est. 0.69) of 0.67.

For “full-length RSV F (TM, residues 1–574) from strain 18537 with the DS-Cav1 prefusion-stabilizing mutations (from UniProt P13843) T67N”, the other: Relative binding (fractional binding relative to motavizumab) (5C4 IgG [3]) was 0.15 and the other: Relative binding (fractional binding relative to motavizumab) (D25 IgG [4]) was 0.53.

Work on “full-length RSV F (TM, residues 1–574) from strain A2 with the DS-Cav1 prefusion-stabilizing mutations K201R” yielded an other: Relative binding (fractional binding relative to motavizumab) (5C4 IgG [1]; parent: est. 0.60) of 0.61 and an other: Relative binding (fractional binding relative to motavizumab) (D25 IgG [2]; parent: est. 0.63) of 0.64.

“full-length RSV F (TM, residues 1–574) from strain 18537 with the DS-Cav1 prefusion-stabilizing mutations (from UniProt P13843) N200D” was tested, and the other: Relative binding (fractional binding relative to motavizumab) (5C4 IgG [3]) was 0.01 and the other: Relative binding (fractional binding relative to motavizumab) (D25 IgG [4]) was 0.33.

With “full-length RSV F (TM, residues 1–574) from strain 18537 with the DS-Cav1 prefusion-stabilizing mutations (from UniProt P13843) R202Q” the other: Relative binding (fractional binding relative to motavizumab) (5C4 IgG [3]) was 0.01 and the other: Relative binding (fractional binding relative to motavizumab) (D25 IgG [4]) was 0.37.

For “full-length RSV F (TM, residues 1–574) from strain 18537 with the DS-Cav1 prefusion-stabilizing mutations (from UniProt P13843) T74A”, the other: Relative binding (fractional binding relative to motavizumab) (5C4 IgG [3]) was 0.01 and the other: Relative binding (fractional binding relative to motavizumab) (D25 IgG [4]) was 0.13.

With “full-length RSV F (TM, residues 1–574) from strain A2 with the DS-Cav1 prefusion-stabilizing mutations D200N” the other: Relative binding (fractional binding relative to motavizumab) (5C4 IgG [1]; parent: est. 0.75) was 0.74 and the other: Relative binding (fractional binding relative to motavizumab) (D25 IgG [2]; parent: est. 0.69) was 0.67.

In the case of “full-length RSV F (TM, residues 1–574) from strain A2 with the DS-Cav1 prefusion-stabilizing mutations N67T”, the other: Relative binding (fractional binding relative to motavizumab) (5C4 IgG [1]; parent: est. 0.75) is reported as 0.6 and the other: Relative binding (fractional binding relative to motavizumab) (D25 IgG [2]; parent: est. 0.69) is reported as 0.61.

5C4 IgG (antibody) gave an EC50 of 5C4 neutralisation of mKate-RSV B strain 18537 wild-type virus on HEp-2 cells (viral F without DS-Cav1; antibody format not given) [5] of 9.15 µg/mL.

Work on “full-length RSV F (TM, residues 1–574) from strain 18537 with the DS-Cav1 prefusion-stabilizing mutations (from UniProt P13843) N201A” yielded an other: Relative binding (fractional binding relative to motavizumab) (5C4 IgG [1]; parent: est. 0.005) of 0.01 and an other: Relative binding (fractional binding relative to motavizumab) (D25 IgG [2]; parent: est. 0.14) of 0.003.

With D25 Fab the Kd [6] was less than 76.9 pM and the koff [6] was less than 1e-05 s⁻¹.

For “RSV F (+) FdTHS based on strain A2 (wild-type A2 RSV F ectodomain fused to a C-terminal trimerization motif) (from UniProt Q4KRW9 1-391) (complex)”, the stoichiometry N [7] was 3.

In the case of “full-length RSV F (TM, residues 1–574) from strain 18537 with the DS-Cav1 prefusion-stabilizing mutations (from UniProt P13843) N201K”, the other: Relative binding (fractional binding relative to motavizumab) (5C4 IgG [1]; parent: est. 0.005) is reported as 0.44, the other: Relative binding (fractional binding relative to motavizumab) (D25 IgG [2]; parent: est. 0.14) is reported as 0.35 and the other: Relative binding (fractional binding relative to motavizumab) (5C4 IgG [3]) is reported as 0.52. For the same substance, the other: Relative binding (fractional binding relative to motavizumab) (D25 IgG [4]) was 0.35.

Substance “full-length RSV F (TM, residues 1–574) from strain A2 with the DS-Cav1 prefusion-stabilizing mutations S213R” has an other: Relative binding (fractional binding relative to motavizumab) (5C4 IgG [1]; parent: est. 0.75) of 0.7 and an other: Relative binding (fractional binding relative to motavizumab) (D25 IgG [2]; parent: est. 0.69) of 0.65.

“full-length RSV F (TM, residues 1–574) from strain 18537 with the DS-Cav1 prefusion-stabilizing mutations (from UniProt P13843) N201R” was tested, and the other: Relative binding (fractional binding relative to motavizumab) (5C4 IgG [1]; parent: est. 0.005) was 0.4 and the other: Relative binding (fractional binding relative to motavizumab) (D25 IgG [2]; parent: est. 0.14) was 0.01.

Substance “full-length RSV F (TM, residues 1–574) from strain 18537 with the DS-Cav1 prefusion-stabilizing mutations (from UniProt P13843) R213S” has an other: Relative binding (fractional binding relative to motavizumab) (5C4 IgG [3]) of 0.01 and an other: Relative binding (fractional binding relative to motavizumab) (D25 IgG [4]) of 0.05.
